According to patent US20120164137A1 (MORPHOTEK, published 2012):

B1: MORAb-003 anti-FRA antibody, lot NB859-24 (harvested 10 days after initiation of culture) (antibody, human IgG1, kappa, V domains shown)
VH: EVQLVESGGGVVQPGRSLRLSCSASGFTFSGYGLSWVRQAPGKGLEWVAMISSGGSYTYYADSVKGRFAISRDNAKNTLFLQMDSLRPEDTGVYFCARHGDDPAWFAYWGQGTPVTVSS
VL: DIQLTQSPSSLSASVGDRVTITCSVSSSISSNNLHWYQQKPGKAPKPWIYGTSNLASGVPSRFSGSGSGTDYTFTISSLQPEDIATYYCQQWSSYPYMYTFGQGTKVEIKR
modifications: N-linked neutral glycans at Asn299 in SEQ ID NO: 5
notes: also called Day 10 harvest
B2: MORAb-003 anti-FRA antibody, lot NB859-27 (harvested 20 days after initiation of culture) (antibody, human IgG1, kappa, V domains shown)
VH: B1 VH
VL: B1 VL
modifications: N-linked neutral glycans at Asn299 in SEQ ID NO: 5
notes: also called Day 20 harvest
B3: MORAb-003 anti-FRA antibody, lot NB859-26 (harvested 17 days after initiation of culture) (antibody, human IgG1, kappa, V domains shown)
VH: B1 VH
VL: B1 VL
modifications: N-linked neutral glycans at Asn299 in SEQ ID NO: 5
notes: also called Day 17 harvest
B4: MORAb-003 anti-FRA antibody, lot NB859-25 (harvested 14 days after initiation of culture) (antibody, human IgG1, kappa, V domains shown)
VH: B1 VH
VL: B1 VL
modifications: N-linked neutral glycans at Asn299 in SEQ ID NO: 5
notes: also called Day 14 harvest; positive control (round 3)

Target: T1, Human FRA on IGROV-1 human ovarian adenocarcinoma cells (human, UniProt P15328 25-234)
Test: cell-based or functional assay

T1 sequence (P15328 25-234 limits assumed): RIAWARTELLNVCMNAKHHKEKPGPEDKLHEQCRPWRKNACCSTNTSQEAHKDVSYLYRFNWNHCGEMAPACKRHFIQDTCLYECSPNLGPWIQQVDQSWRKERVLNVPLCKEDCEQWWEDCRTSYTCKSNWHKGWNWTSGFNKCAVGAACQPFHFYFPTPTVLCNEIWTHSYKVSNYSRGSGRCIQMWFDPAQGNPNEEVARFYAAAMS

In order of falling “Half-Maximal Internalization Constant” value:
1. B1  44.6 min
2. B4  42 min
3. B2  37.3 min
4. B3  36.6 min

In order of rising “Internalization IC50” value:
1. B1  15 ng/mL
2. B2  23 ng/mL
3. B4  32 ng/mL
4. B3  36 ng/mL

Target: T2, Recombinant human folate receptor alpha (FRA) (human, UniProt P15328 25-234)
T2 construct: Immobilised on a CM5 chip by amine coupling; also called FR-alpha
Test: SPR, FRA on CM5 chip, parallel line analysis; reference standard = 100%
Method: The surface was regenerated between cycles by flushing with 10 mM glycine pH 2.0.

T2 sequence (P15328 25-234 limits assumed): as above

In order of falling “Measured Potency (%)” value:
1. B2  53.3%
2. B4  51.9%
3. B1  33.8%
4. B3  27.5%

Target: T1, Human FRA on IGROV-1 human ovarian …
Test: cell-based or functional assay
Remark: another data set of the same source

In order of falling “INTL % (0 Min)” value:
1. B1  0%
2. B2  0%
3. B3  0%
4. B4  0%

In order of falling “INTL % (15 min)” value:
1. B1  1%
2. B2  1%
3. B4  1%

In order of falling “INTL % (30 min)” value:
1. B3  23%
2. B4  20%
3. B2  19%
4. B1  18%

In order of falling “INTL % (60 min)” value:
1. B4  44%
2. B3  43%
3. B1  40%
4. B2  40%

In order of falling “INTL % (150 min)” value:
1. B4  61%
2. B1  58%
3. B3  56%
4. B2  51%

Target: T1, Human FRA on IGROV-1 human ovarian …
Test: cell-based or functional assay
Remark: another data set of the same source

In order of falling “IC50 (Hum-ZAP secondary immunotoxin killing of IGROV-1 cells)” value:
1. B3  36 ng·mL
2. B4  32 ng·mL
3. B2  23 ng·mL
4. B1  15 ng·mL
